assay: soluble on expression in E. coli; label from the status in PepcDB or PDB records

Sequence | soluble on expression in E. coli
MGSDKIHHHHHHMTHFGVDLWDRFTTRIGEARETLRAAGAPTGLLDQAEGARYLSRIVRLGLEMYLEGGDPDFPSFVLPSHATAKLGGDNPDNLYLSATILGDRSYRLTGNIGSVHYLSIGSKANRYAIDGTMASTGELQKEAFRADANGDFTVIASVKRPEGDVAWLPLAPDSNILQVRQTFLNRARETPARFAIERISEGLAHPAPTDPLAIERRMMAAADFVVNATRMFASWTAMFMPYPNEMRDWGQDMFHKAGGDPAIFYVHGYWKLAPGERLLIETDVPECEHWNIQVDNWWMESMDYRYLPACINAGNAEREADGSVRIVLAADDPGERNWLTTHGHSEGHLLLRWVRAASHPIPKLTLLRD | not soluble
MILDADIKTQLSQYLQLMENDILLKVSAGNDDVSKDMLALVDELATMSSKITVEKVELERTPSFSVNRPGEDTGVVFAGIPLGHEFTSLVLALLQVSGRAPKVEQKLIDQIKNIQGEYHFESYISLSCHNCPDVVQALNVMSVLNSGITHTMIDGAAFKEEVESKDIMAVPTVFLNGESFGSGRMTLEEILAKMGNGPDASELSDKDPYDVLVVGGGPAGASAAIYAARKGIRTGIVAERFGGQVMDTMGIENFISVKRTEGPKLVASLEEHVKEYDIDVMNLQRAKRLEKKELIEVELENGAILKSKSVIVSTGARWRNVGVPGEAEFKNKGVAYCPHCDGPLFTGKDVAVIGGGNSGIEAAIDLAGIVKHVTVLEFMPELKADAVLQERLNSLPNVTVLKNVQTKEITGTDKVNGISYIDRETEEVHHVELQGVFVQIGLVPNTDWLGETVERVRGEIVTDKHGATNVPGVFAAGDCTNNPYKQIIISMGSGANAALGAFDYLIRN | not soluble
MSTSVAENKALSASGDVNASDASVPPELLTRHPLQNRWALWYLKADRNKEWEDCLKMVSLFDTVEDFWSLYNHIQSAGGLNWGSDYYLFKEGIKPMWEDVNNVQGGRWLVVVDKQRRTQLLDHYWLELLMAIVGEQFDEYGDYICGAVVNVRQKGDKVSLWTRDATRDDVNLRIGQVLKQKLSIPDTEILRYEVHKDSSARTSSTVKPRICLPAKDPAPVKEKGPAATTSPSNPGTEATGTSPATPTP | not soluble
MSSNYIYRTAEKSDFDRILKFLAEHFYHEEPSIRASKIALEEWLPIFGEMTTSSLKLPISTVVTTEDGENIVAVLLNSMWSREEDEERMKHGNGKGDHDTSGYSEALQRFMTIVQKCHDEFWNLAPSDVNLVVYREISSVGKPWQRQGIATKMLSRNMSAARLHNVDGIVSATSSFANQTLLAKNGFQCLKEFPYSGIVSSNGDKLVETDDGSHGMRINFKRIEKSGNGPCEMEPPKSATFQNVATSVSS | soluble
MVMLTKCLSSKDNIMSLTCMPALFLGHGSPMNVLDDNDYTRAWRRLGEALPRPQAIVVVSAHWYTRGTGVTAMERPQTLHDFGGFPQALYDTHYPAPGSPALAQRLVELLAPVPVALDKEAWGFDHGSWGVLIKMYPNADIPMVQLSVDSTKPAAWHFEVGRKLATLRDEGVMLVASGNVVHNLRTVRWHGDNIPYPWAASFNDFVKANLTWQGPVEQHPLVNYLQHEGGALSNPTPEHFLPLLYVLGAWDGKEPITIPVDGIEMGSISMLSVQVGLEHHHHHH | not soluble
AIASSAIERKSLDPSEEPVDEVLQIPPSLLTCGGCQQNIGDRYFLKAIDQYWHEDCLSCDLCGCRLGEVGRRLYYKLGRKLCRRDYLRLFGQDGLCASCDKRIRAYEMTMRVKDKVYHLECFKCAACQKHFCVGDRYLLINSDIVCEQDIYEWTKINGMI | soluble
MSLADKRKHRFSVRYWLWRHTSLKRVAFCGRVAASAVASVGVRCSDGRAGFAGLQSCGSVWACPVCNAKIMARRGLELGAAVETWTKHGGRVAFMTFTVRHSRKDSLTAVWDGVASGWRRVTSGKGWTSDQLRHGVEGFVRVVEVTHGRNGWHVHLHVLVFLVGDFGDALALHRSMFGRWERGVLAAGLGTPLARAQDVQQMSAATGLDHLARYLSKAQFQGKIGHELTNSQSKTARSALSTRSTWEVLGDAANGLAKEVGLWFEWEKGSRGRRQIGWSAGLRDRLGLMVEESDDVIAAEEVGSVADTVALITGDGWRRLVGQQKLYECLRSCELGGQAGLARWLQEHGIEHELVEVDEGHHHHHH | soluble
MTAMDHQFPSWIVVNESTSISREQLNYLLETYNVFYENQKNLHILYGQTEDGQLIVEGMLDIFWGVKRPIQLKIQDEKQISSFDLLNTPETFSSKGRMTRWGEFDDLYRISELDRTHVLASEARHSPEDYLSYHSTLTPYADEEPESPLLYRTMSEAESPLLYRTMSEAALVRKRMRAPEMYRKDRMGVLSNHRASINGHVYDHETSIFTPTFGSETKVRANSIMRTEEVIKQLLQKFKIENSPRDFALYIIFGTGEQRKLKKTDVPLLQRLLQGPSKSNARIFLMDKDAEEISRDVAPYINFHFSFLESILQRLDEEEKMEIERIMAKFNTERAFILKCLQSKQAAKTETTV | soluble
MQELQLKVTQAQVEIIDREKFEQNINEVVAKYQNYAVTAGTIKDDKQVLADLRKLKKQLSDERIKVKKELSKPADDIDGYIKQASKPLDDTIDKIATDVKEFEDHQKALRLDTVKSYLSNKASEYMLDPRIFDEKAMEYTKAGNFMADGVTLKKVTMKSLEDLVTFEYQKEQEVEKAKATISGQCAEYGMTDQPYIRMLKEMTLVEVLGQIKADYLAEKQK | not soluble
MKEKVIVIGGGLAGSEAAWRLANEGHRVILYEMRPKKMTPAHKTGNLAELVCSNTLGGLELTTGAGLLKAEMQKLGSLVIEAAKVARVPAGGALGVDRKIFSEYITEKIESHPNITLIREEVKEIPEDEVVVIATGPLTSDALSEKIKELVGYDTLYFYDAIAPIVEAESVDFSKGFWGSRYGKGGDDYFNCVLTEEEYKKFYEELLKAEKVKPKDFEKAVHFEGCLPIEEMAERGYKTLLFGPMKPVGLVDPRTGKEPFAVVQLRKENKEGTLLSLVGFQTKLTYKEQKRVFRLIPCLRNAVFVRLGSMHRNTFIQSNKVLTHYLNLKKKENIFFAGQITGVEGYVASSATGILAGINAGRLARGEKPLKAPTETMLGALVNYIVTKEGELQPMNPVFGLLPPLEKKVRDKKKRKELMAKRALETMEKWIKENNLVPEGLVKVC | soluble
MGTALAAPPLGGCAEGFEVHGGDEEGLPLPTQIDLYLVGLAPLPHHGSRQPVEPPVGHAPVWEGGVYDYSHLIAHPVLPKVGAEPGYAALLPHRLPQQPPSPVPIASRCLDQPTLPPVFCSAQLNLALAGCGWSFMLHPHHVELYTHSLPAEDLSEAWPGSPAITADQLLDVETPFRLQYALHQRRPLQGAAV | soluble
MSLSRHSNTPATDASVLLVQLSDSHLFAEDGARLLGMDTAHSLEKVVERVAREQPRIDLILATGDVSQDGSLDSYTRFRRLSAPLDAPLRWFAGNHDEREPMQRATEGSDLLEQVVDVGNWRVVLLDSSIPGAVPGYLEEDQLELLRRAIDSAGERFLLVSFHHHPVPIGSDWMDPIGLRNPQALFDLLAPYPQVRCLLWGHIHQEFDRQRGPLRLLASPSTCVQFAPGSSDFTLDRLAPGYRWLRLHDDGRLETGISRVDDVVFEVDYDTAGYEGGSHHHHHH | soluble
MGSDKIHHHHHHMISMKPRYKPDWESLREHTVPKWFDKAKFGIFIHWGIYSVPGWATPTGELGKVPMDAWFFQNPYAEWYENSLRIKESPTWEYHVKTYGENFEYEKFADLFTAEKWDPQEWADLFKKAGAKYVIPTTKHHDGFCLWGTKYTDFNSVKRGPKRDLVGDLAKAVREAGLRFGVYYSGGLDWRFTTEPIRYPEDLSYIRPNTYEYADYAYKQVMELVDLYLPDVLWNDMGWPEKGKEDLKYLFAYYYNKHPEGSVNDRWGVPHWDFKTAEYHVNYPGDLPGYKWEFTRGIGLSFGYNRNEGPEHMLSVEQLVYTLVDVVSKGGNLLLNVGPKGDGTIPDLQKERLLGLGEWLRKYGDAIYGTSVWERCCAKTEDGTEIRFTRKCNRIFVIFLGIPTGEKIVIEDLNLSAGTVRHFLTGERLSFKNVGKNLEITVPKKLLETDSITLVLEAVEE | not soluble
MAIKNEIKNCLIMSVNPSYPLPLLCQYIPRYHPQMPTCPLFESKSIITPVFYFNCKRMDRSIDRRLCGHCHQSIGSEALVAMNRLWHPDHFTCSSCKRPIKQTFQAADNHAYCVQCFAQKYNPKCAGCMETLVDTCLLALDRHWHPRCFTCSSCNRPLPNGEFYLVDDKPYDLDCHWAKRLEKREHMERGER | not soluble
MSASSLLEQRPKGQGNKVQNGSVHQKDGLNDDDFEPYLSPQARPNNAYTAMSDSYLPSYYSPSIGFSYSLGEAAWSTGGDTAMPYLTSYGQLSNGEPHFLPDAMFGQPGALGSTPFLGQHGFNFFPSGIDFSAWGNNSSQGQSTQSSGYSSNYAYAPSSLGGAMIDGQSAFANETLNKAPGMNTIDQGMAALKLGSTEVASSVPKVVGSAVGSGSITSNIVASSSLPPATIAPPKPASWADIASKPAKQQPKLKTKNGIAGSSLPPPPIKHNMDIGTWDNKGPVAKAPSQALVQNIGQPTQGSPQPVGQQANNSPPVAQASVGQQTQPLPPPPPQPAQLSVQQQAAQPTRWVAPRNRGSGFGHNGVDGNGVGQSQAGSGSTPSEPHPVLEKLRSINNYNPKDFDWNLKHGRVFIIKSYSEDDIHRSIKYNIWCSTEHGNKRLDAAYRSMNGKGPVYLLFSVNGSGHFCGVAEMKSAVDYNTCAGVWSQDKWKGRFDVRWIFVKDVPNSQLRHIRLENNENKPVTNSRDTQEVPLEKAKQVLKIIASYKHTTSIFDDFSHYEKRQEEEESVKKERQGRGK | soluble
MGLIMAKLFQSWWIGKKYKIIVVGLDNAGKTTILYNYVTKDQVETKPTIGSNVEEVSYRNLDFVIWDIGGQESLRKSWSTYYVQTDVVIVVIDSSDTTRIPIMKEQLHNMLQHEDLARAHILVLANKQDLPGAMNPAEVSTQLGLQTLRGARKWQINGCCAVKGEGLPEALEWIANNL | not soluble
MGSDKIHHHHHHMIDKLEFFLALARERHFGRAAEECGVTQPTLSAAIRQLEEQLGVILVNRGSRFQGLTPEGQRVLEWARRIVSDSRTMREEMRAARKGLSGHMRLAAVPTTLSMVPLITAPFQEKHPDVTFSVLSTTSLQILALLENLEIDAGLTYLENEPLGRVTSVPLQIEQYHLVTAAGTALSDRESVTWKEVSDIRLCLLTADMQNRRIINQHFAEAGAVPKPTLESNSMIVLFSHVRTGRWASIMPYNVAKSFGFHEDIRMIPIVDPDVRHTVGLVATYREPFTPLVSALLHEARILGERNQVQ | not soluble
DQVGIWGNSPTAHRGLAVAARHAAPLLRVEDAFLRSLFPGRAGEPPLGLLLDRAGVHFDPTTPSDLEQLLTSAPLDDTTLLNRARDAMARIRENHLSKYCATDPDLPLPEPGYVLVIDQTRGDASVTASGGNDALFREMLVFAQEEHPGARVLIKTHPETAAGFRPGYYGERDISVRVSLYDAPLSPWALLDGAVGVYTLSSQLGFEAILAGHKPRVFGQPFYAGWGLTLDEHPVPRRERRLTRAQLFAAAMILYPTW | not soluble
KTIAIIGAGIVGVSTAIWLQRDGHQVVLIDRAGPAEGTSYGNGGVLASCSIVPVTTPGLIAKAPRMLFSPNEPLFLRWGYLPRLAPWLLRYLRRANARDATQTAAAMAPIVGDSLADHLALAQGTGAEKWVVPSDYLFIYNDRAHFQGDAFGWNLRRQNGFVWDEMEAEEFRGYDPIFSSDLRFAVRLKDHGRITDPGQYVKDLAAHVVASGGQLIQADVEDIARENGRVTGVRAGGRTIPCDAAVIATGVWSGPLARKLGLEVPLEAERGYHIEFWNPNFMPKSPVMVAARKFVATPMEGRLRLAGVVEFGGLDAGPSRAPIELLKRSAAAVFPGLKADEVTEWLGHRPAPADSIPVIGELPHLKGAFTGFGHHHVGLTGGPKTGRILAQLIAGRQPNIDL | not soluble

Source: the DeepSol protein solubility set
